Measured values published in paper doi:10.1101/2020.02.10.941963.
Read-outs that look alike come from different tables or passages of the source.

Legend:
[1] = target: Rv1019, putative TetR family transcriptional regulator of Mycobacterium tuberculosis H37Rv (Mycobacterium tuberculosis H37Rv); experiment: native gel or EMSA
[2] = target: Rv1019, putative TetR family transcriptional regulator of Mycobacterium tuberculosis H37Rv (Mycobacterium tuberculosis H37Rv); experiment: cross-linking
[3] = target: T1, Rv1019 (TetR family regulator) (Mycobacterium tuberculosis H37Rv) (UniProt P96381); experiment: EMSA
T1 sequence: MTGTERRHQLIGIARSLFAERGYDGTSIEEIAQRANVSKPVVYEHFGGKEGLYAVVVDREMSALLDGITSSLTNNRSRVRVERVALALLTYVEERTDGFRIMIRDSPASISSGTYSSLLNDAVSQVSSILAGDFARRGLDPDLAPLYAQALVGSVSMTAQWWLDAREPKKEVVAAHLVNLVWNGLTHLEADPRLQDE

[4] = target: T2, Rv1019 (TetR family regulator) (Mycobacterium tuberculosis H37Rv, UniProt P96381 1-197); experiment: EMSA
T2 sequence: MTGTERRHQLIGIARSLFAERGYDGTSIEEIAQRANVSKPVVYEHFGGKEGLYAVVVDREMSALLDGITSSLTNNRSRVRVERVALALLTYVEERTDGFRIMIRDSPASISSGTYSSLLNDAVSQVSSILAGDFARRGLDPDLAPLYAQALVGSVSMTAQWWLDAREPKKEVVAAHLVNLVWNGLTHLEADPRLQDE

[5] = target: T2, Rv1019 (TetR family regulator); experiment: EMSA; remark: listed apart in the source

Rv1019, putative TetR family transcriptional regulator of Mycobacterium tuberculosis H37Rv (natural protein)
stoichiometry N [1]: 2 | stoichiometry N [2]: 2

CCTGGCGCGCGTCACCCGCGTCGGGTTTTCCGGCGCCTTATCCGGCCCTTTATCCGGTCCGGCCACATCAACAAGGGTATCGGTTTGCGTGGGGCCGGTGGGTAGACGGCGACAGCGTTGACTGTGCTGACGGCGTTGACACCGTCTAAAGTCACATCGATGTGCAATCCGTCGTGGTGTAATCGGCAGCACCTCTGATTTTGGTTCAGATAGTTCAGGTTCGAGTCCTGGCGACGGAGCTTCAAGGAGGGTTGATGACGTTTCCTGGTGACACCGCGGTCCTGGTCCTAGCGGCCGGGC (double strand) [Fragment I, Rv1019 upstream -300 to -1]
binding [3]: binds

B1: M. smegmatis cognate site (MS Pal S1/S2) (dsDNA)
DNA 1: GGCTTGACGTGCGCGAACCGTCGAAAG
DNA 2: CTTTCGACGGTTCGCGCACGTCAAGCC
binding result [4]: binds

B2: Rv1019 18 bp inverted repeat (Palindrome Oligo S1/S2) (dsDNA)
DNA 1: TGACTTTAGACGGTGTCAACGCCGTCAGCACAGT
DNA 2: ACTGTGCTGACGGCGTTGACACCGTCTAAAGTCA
binding result [5]: binds
